{
  "source": "the DeepSol protein solubility set",
  "data": [
    {"test": "soluble on expression in E. coli; label from the status in PepcDB or PDB records", "values": [
      {"sequence": "GEEGNSSELPLSAEDAKKLTELAENVLQGWDVQAEKIDVIQGNQMALVWKVHTDSGAVCLKRIHRPEKKALFSIFAQDYLAKKGMNVPGILPNKKGSLYSKHGSFLFVVYDWIEGRPFELTVKQDLEFIMKGLADFHTASVGYQPPNGVPIFTKLGRWPNHYTKRCKQMETWKLMAEAEKEDPFSQLYLQEIDGFIEDGLRIKDRLLQSTYVPWTEQLKKSPNLCHQDYGTGNTLLGENEQIWVIDLDTVSFDLPIRDLRKMIIPLLDTTGVWDDETFNVMLNAYESRAPLTEEQKQVMFIDMLFPYELYDVIREKYVRKSALPKEELESAFEYERIKANALRQLI", "soluble on expression in E. coli": "soluble"},
      {"sequence": "GEKGTTGTGNAALDNIFERKSVRTYLNKGVEKEKIDLMLRAGMSAPSGKDVRPWEFVVVSDRAKLDSMAAALPYAKMLTQARNAIIVCGDSARSFYWYLDCSAAAQNILLAAESMGLGAVWTAAYPYEDRMEVVRKYTHLPENILPLCVIPFGYPATKEQPKQKYDEKKIHYNQY", "soluble on expression in E. coli": "soluble"},
      {"sequence": "GEKTYVKRLVKILLLGAGESGKSTFLKQMRIIHGQDFDQRAREEFRPTIYSNVIKGMRVLVDAREKLHIPWGDNKNQLHGDKLMAFDTRAPMAAQGMVETRVFLQYLPAIRALWEDSGIQNAYDRRREFQLGESVKYFLDNLDKLGVPDYIPSQQDILLARRPTKGIHEYDFEIKNVPFKMVDVGGLRSERKRWFECFDSVTSILFLVSSSEFDQVLMEDRQTNRLTESLNIFETIVNNRVFSNVSIILFLNKTDLLEEKVQVVSIKDYFLEFEGDPHCLRDVQKFLVECFRGKRRDQQQRPLYHHFTTAINTENIRLVFRDVKDTILHDNLKQLMLQ", "soluble on expression in E. coli": "soluble"},
      {"sequence": "GGLTEICRKPVSPGCISSVSDWLISIGLPMYAGTLSTAGFSTLSQVPSLSHTCLQEAGITEERHIRKLLSAARLFKLPPGPEAM", "soluble on expression in E. coli": "soluble"},
      {"sequence": "GHHHHHHAIAENLYFQSEVSKANGTENNVEKFDAATQEATYLDEADVDAELEAMKKRLQEMEEEANRLKEVQEQSASEVPSSEEVDRRSVYVGNVDYGSTPEELQAHFKECGTINRVTILCDKFTGHPKGFAYIEFATEEGANNAVILNESLFRGRNLKVSIKRTNVPGISTTDRGRGRGFPRGIGFRGRGGLRGGFRGRGYHGFRGRGRMTPY", "soluble on expression in E. coli": "not soluble"},
      {"sequence": "GHMAAPILKDVVAYVEVWSSNGTENYSKTFTTQLVDMGAKVSKTFNKQVTHVIFKDGYQSTWDKAQKRGVKLVSVLWVEKCRTAGAHIDESLFPAANMNEHLS", "soluble on expression in E. coli": "soluble"},
      {"sequence": "GHMPPWTARQDSTTGLYAPVTPAGRVLLDRLAAHLPRIRSTAAEHDRDGTFPTDTFDALRKDGLMGATVPAELGGLGVDRLYDVAVALLAVARADASTALALHMQLSRGLTLGYEWRHGDERARTLAERILRGMVAGDAVVCSGIKDHHTAVTTLRPDGAGGWLLSGRKTLVSMAPVGTHFVINARTDGTDGPPRLASPVVTRDTPGFTVLDNWDGLGMRASGTVDIVFDDCPIPADHVLMRDPVGARNDAVLAGQTVSSVSVLGVYVGVAQAAYDTAVAALERRPEPPQAAALTLVAEIDSRLYALRATAGSALTAADALSADLSGDMDERGRQMMRHFQCAKLAVNRLAPEIVSDCLSLVGGASYTAGHPLARLLRDVQAGRFMQPYAYVDAVDFLSAQALGIERDNNYMSTWAKRSGGNGKSADAAGPRRPTPTSR", "soluble on expression in E. coli": "soluble"},
      {"sequence": "GHMSAHVQQDKYETNVSYKKLNQLAPYFKGFDGSFVLYNEREQAYSIYNEPESKQRYSPNSTYKIYLALMAFDQNLLSLNHTEQQWDKHQYPFKEWNQDQNLNSSMKYSVNWYYENLNKHLRQDEVKSYLDLIEYGNEEISGNENYWNESSLKISAIEQVNLLKNMKQHNMHFDNKAIEKVENSMTLKQKDTYKYVGKTGTGIVNHKEANGWFVGYVETKDNTYYFATHLKGEDNANGEKAQQISERILKEMELI", "soluble on expression in E. coli": "soluble"},
      {"sequence": "GHMYQHHNWQGALLDYPVSKVVCVGSNYAKHIKEMGSAVPEEPVLFIKPETALCDLRQPLAIPSDFGSVHHEVELAVLIGATLRQATEEHVRKAIAGYGVALDLTLRDVQGKMKKAGQPWEKAKAFDNSCPLSGFIPAAEFTGDPQNTTLSLSVNGEQRQQGTTADMIHKIVPLIAYMSKFFTLKAGDVVLTGTPDGVGPLQSGDELTVTFDGHSLTTRVLGS", "soluble on expression in E. coli": "soluble"},
      {"sequence": "GIDIDLQMLGERLLKNKIGSIVAIEPETGEILCMVSSPDFDPRLMIGRQRGKNHLMLQRDPMKPLLNRSIMGVYPPGSTFKTAQALTFLQEGIIQTNTPAFPCAHGFNYGSLHVGCHAHGSPLPLIPAIATSCNSYFCWGLFRMFGDRKYGSSQNAITVWKDHMVSQGFGYKLGVDLPGEKRGLIPNAQFYDKAYRGRWNGLTVISIAIGQGEILATPLQIANLGATIANRGHFITPHIVKEIQDEQLDSLYRVPRKTSIDRKHYEDVVTGMRAAVTGGTCRVAGAILPDVEVCGKTGTAQNRGHDHSVFMGFAPMNNPKIAIAVYVENGGFGAVYGVPIGALMMEQYLKGKLSPEN", "soluble on expression in E. coli": "not soluble"},
      {"sequence": "GIDPFTVRTRVSEGLVLAEPAKLMISTDGSASTADLTRATTTWNQQSNNLGASSKYVTSVLMDAGNTGVITITYVADQVGLPTAGNTLILSPYINDGNTRTALATAVAAGTRGTIDWACTSASNATATAQGFTGMAAGSVPQEFAPAQCR", "soluble on expression in E. coli": "soluble"},
      {"sequence": "GINDLDISPIDPQTGGSFDQQGVFVKGYAMLGVTGQKGIDGSPDLDGQDEGESGFYRTTFNCNELPTDECLWAWQKNQDIPQLTSISWSPSSQRTEWVYVRLGYDITQYNFFLDQTEGMTDAETLRQRAEIRFLRALHYWYFLDLFGKAPFKEHFSNDLPVEKKGTELYTYIQNELNEIEADMYEPRQAPFGRADKAANWLLRARLYLNAGVYTGQTDYAKAEEYASKVIGSAYKLCTNYSELFMADNDENENAMQEIILPIRQDGVKTRNYGGSTYLVCGTRVAGMPRMGTTNGWSCIFARAAMVQKFFSNLEDVPMLPADVEIPTKGLDTDEQIDAFDAEHGIRTEDMIKAAGDDRALLYSGVGGGRRKIQTDAISGFTDGLSIVKWQNYRSDGKPVSHATYPDTDIPLFRLAEAYLTRAEAIFRQGGDATGDINELRKRANCTRKVQTVTEQELIDEWAREFYLEGRRRSDLVRFGMFTTNKYLWDWKGGAMNGTSVASYYNKYPIPVSDINNNRNMSQNEGYK", "soluble on expression in E. coli": "soluble"},
      {"sequence": "GKDFTYNASLTFSHARNEIRNMDEPATKTAYRKQEGHPINQYFGLVCDGFVTQADLNNPDFPVSTFGNVQVGDLKYRDMNGDGFIDSRDETFIGYSDVPENTYALSLGCEYKGIGFSIMFQGVDHVSRYYDAEAMYAFVNGGKVKEHHLNRWNPNQSEAYNLTHASYPLLHYDSYGDHNQRKNSFFLKNGNFLRLKNIELSYSLPARWIRKVAMNECRVYVNANNLITWDKLDGLCDPESEGSNRYPIMKTVNFGVNIKF", "soluble on expression in E. coli": "not soluble"},
      {"sequence": "GKNLNWDFDANISFNRNKISGLPGDQFAQGWSKADNVFLQRNGMPIGTIYGFVEDGFYDNIAEVRADPFYAKESEAVCKAMVGEVKYKDFDGVAGITNADRQVIGDTNPDFTFGMTHNFTYKNFSLSFFLQGCVGGDIFNANLLEVTMSGIGNIPQNIYESRWTPENRENAKWPKAYAGYGRTMKLSDRYVEDGSYLRMKNINLGYKFISPFKGIESINLFASVSNVFTISGYSWYDPDVNSFGSDASRRGVDLFSYPSSRTFSFGLQCTF", "soluble on expression in E. coli": "not soluble"},
      {"sequence": "GKPDGKIDYADAVFKGCSDPGYLLGLNNTFRYKNFDLNVYFYGQLDLLKSGSYKDYWIVGSGTMTGVNNLYRGYNMPTSAKEVWSHDNTSGKMPGYFQYMSNYGYGDYFLEKSWFIRCRNITLGYTLPVKSAKKLVSNVRIYADVNNLFTITPYDGLDVETDDSYWAYPNVRSFSIGLDITF", "soluble on expression in E. coli": "not soluble"},
      {"sequence": "GKTVSVFGETCATPVGPAAGPHTQLAQNIVTSWLTGGRFIELKTVQILDRLELEKPCIDAEDECFNTEWSTEFTLLKAWDEYLKAWFALHLLEAMFQPSDSGKSFIFNMSVGYNLEGIKQPPMQQFIDNMMDASDHPKFAQYRDALNKLLQNEAFLARHGLQEKRESLQALPARIPTSMVQGVTLSTMHGCPPHEIEAICRYMLEEKGLNTFVKLNPTLLGYARVREILDVCGFGYIGLKEESFDHDLKLTQALEMLERLMALAKEKSLGFGVKLTNTLGTINNKGALPGEEMYMSGRALFPLSINVAAVLSRAFDGKLPISYSGG", "soluble on expression in E. coli": "not soluble"},
      {"sequence": "GLLDLKSMIEKVTGKNALTNYGFYGCYCGWGGRGTPKDGTDWCCWAHDHCYGRLEEKGCNIRTQSYKYRFAWGVVTCEPGPFCHVNLCACDRKLVYCLKRNLRSYNPQYQYFPNILCS", "soluble on expression in E. coli": "soluble"},
      {"sequence": "GLVLPHTEFQPAPKQDSSPHLTSQRPVDMVQLLKKYPIVWQGLLALKNDTAAVQLHFVSGNNVLAHRSLPLSEGGPPLRIAQRMRLEATQLEGVARRMTVETDYCLLLALPCGRDQEDVVSQTESLKAAFITYLQAKQAAGIINVPNPGSNQPAYVLQIFPPCEFSESHLSRLAPDLLASISNISPHLMIVIASV", "soluble on expression in E. coli": "soluble"},
      {"sequence": "GLVPRGSHMTGRMLTLDGNPAANWLNNARTKWSASRADVVLSYQQNNGGWPKNLDYNSVGNGGGGNESGTIDNGATITEMVFLAEVYKSGGNTKYRDAVRKAANFLVNSQYSTGALPQFYPLKGGYSDHATFNDNGMAYALTVLDFAANKRAPFDTDVFSDNDRTRFKTAVTKGTDYILKAQWKQNGVLTVWCAQHGALDYQPKKARAYELESLSGSESVGVLAFLMTQPQTAEIEQAVRAGVAWFNSPRTYLEGYTYDSSLAATNPIVPRAGSKMWYRFYDLNTNRGFFSDRDGSKFYDITQMSLERRTGYSWGGNYGTSIINFAQKVGYL", "soluble on expression in E. coli": "soluble"},
      {"sequence": "GMENIEYVFEDVVRIYDTDAQGIAHYAAYYRFFTNTIEKFIKEKVGIPYPIVNENLWFVIAESHAIYHRPVKLGDKLTVLLNPKILSNKTIKFEFKVLKDGELTTEGYVIQIAINPKIWKSTEMPKEIMDKLSIK", "soluble on expression in E. coli": "soluble"},
      {"sequence": "GMENIPFLRASTVPVIEYLDELKEIDASHIYTNYGPINQRFEQTIMSGFFQNRGAVTTVANATLGLMAAIQLKKRKKGKYALMPSFTFPATPLAAIWCGLEPYFIDISIDDWYMDKTVLWDKIEELKEEVAIVVPYATFGSWMNLEEYEELEKKGVPVVVDAAPGFGLMNGGMHYGQDFSGMIIYSFHATKPFGIGEGGLIYSKNEEDIQRIKRMGNFGFDTNRECTMMGFNCKMSEYAAAIGIATMKKWDDKLKERTRISEWYKQLLQSNGLMKKGWQLQKTEAVIQQFMPILCPEEVRNKQVIEDLKKQKIEARLYFSPSCHQQVLFRNYKSTDLTRTNKIAKRIVSLPLWEGMTKEIVEQIVICLGQKVVSADE", "soluble on expression in E. coli": "soluble"},
      {"sequence": "GMFAGSIPMYIRVVSITAQSKLQFDMTVTYFENVWSPKVISLGAISAEFVQSNENSGMYIIHYPDKQTAISVFDKIKPEVDEVRTQNRIQITEGKRLFRVD", "soluble on expression in E. coli": "soluble"},
      {"sequence": "GMGGAALPDNGWPADRIDTESAHSARIYDYIIGGKDYYPADKEAGDAMSREWPALPVHMRANRDWMNRAVAHLAKEAGIRQFLDIGTGIPTSPNLHEIAQSVAPESRVVYVDNDPIVLTLSQGLLASTPEGRTAYVEADMLDPASILDAPELRDTLDLTRPVALTVIAIVHFVLDEDDAVGIVRRLLEPLPSGSYLAMSIGTAEFAPQEVGRVAREYAARNMPMRLRTHAEAEEFFEGLELVEPGIVQVHKWHPDAATADGIRDEDIAMYGAVARKP", "soluble on expression in E. coli": "soluble"},
      {"sequence": "GMGQRSDSDHVMAEATTDKRQGHTRGRTGNDRRTQIIKVATELFREKGYYATSLDDIADRIGFTKPAIYYYFKSKEDVLFAIVNSIVDEALERFHAIAAGPGSPGERIHALLVEHTRTILRNLDANTLFYNERGLLSPEREREMRKREREYTEIMQRLYAEGVATGELLDVDPTVATATLLGAAIWTYRWYDPEGRLSADEVVEQITRLLLNGYRRPA", "soluble on expression in E. coli": "soluble"},
      {"sequence": "GMGVNMRAETESRIFSVDEYVRPSNGEPIRSVVLETNDSVVVVWHAHPGQEIASHVHPHGQDTWTVISGEAEYHQGNGIVTHLKAGDIAIAKPGQVHGAMNSGPEPFIFVSVVAPGNAGFALAEK", "soluble on expression in E. coli": "soluble"}
    ]}
  ]
}
